# Reference: doi:10.1101/2020.06.17.157057
# Read-outs that look alike come from different tables or passages of the source.
# Columns and labels:
# [1] = target: Maltose Binding Protein (MBP), tethered between beads by DNA handles [MBP: P0AEX9]; assay: optical tweezers
# [2] = target: Maltose Binding Protein (MBP), tethered between beads by DNA handles [MBP: P0AEX9]; assay: optical tweezers; remark: listed apart in the source
substance,measurement,setting,value
GroEL398A (slowly hydrolyzing GroEL) (from UniProt P0A6F5 1-548) (natural protein),tethers that switched to a prolonged unfolded state,[1],30%
GroEL (wild type) (from UniProt P0A6F5 2-525) (natural protein),tethers that switched to a prolonged unfolded state,[2],20%
same,tethers that switched to a prolonged unfolded state,[1],50%
